Experimental data as given in patent publication US20210388087A1 (Chugai, published 2021).

T1: Human CD3eg linker (human)
T1 construct: Single chain: epsilon and gamma subunits of human CD3 joined by a 29-mer linker, Flag-tag at the C-terminus; also called recombinant human CD3
T1 chain: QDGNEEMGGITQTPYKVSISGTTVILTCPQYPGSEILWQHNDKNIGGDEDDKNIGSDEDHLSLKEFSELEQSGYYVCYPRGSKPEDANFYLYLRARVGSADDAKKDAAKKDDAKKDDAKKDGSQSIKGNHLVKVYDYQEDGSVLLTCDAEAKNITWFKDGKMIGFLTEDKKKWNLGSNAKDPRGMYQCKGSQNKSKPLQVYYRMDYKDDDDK


Target: T1, Human CD3eg linker
Test: Biacore SPR, vs template H183/L072

| fold change of affinity [fold] | Binder |
| --- | --- |
| 0.5 | H183/L072 VH N53V (antibody, name in Kabat numbering, V domains shown) VH: QVQLVESGGGLVQPGRSLRLSCAASGFTFSNAWMHWVRQAPGKGLEWVAQIKDKGVAYAAYYAPSVKGRFTISRDDSKNSIYLQMNSLKTEDTAVYYCHYVHYASASTVLPAFGVDAWGQGTTVTVSS VL: DIVMTQSPLSLPVTPGEPASISCQASQELVHMNRNTYLHWYQQKPGQAPRLLIYKVSNRFPGVPDRFSGSGSGTDFTLKISRVEAEDVGVYYCAQGTSVPFTFGQGTKLEIK |
| 1.2 | H183/L072 VH P100eA (antibody, name in Kabat numbering, V domains shown) VH: QVQLVESGGGLVQPGRSLRLSCAASGFTFSNAWMHWVRQAPGKGLEWVAQIKDKGNAYAAYYAPSVKGRFTISRDDSKNSIYLQMNSLKTEDTAVYYCHYVHYASASTVLAAFGVDAWGQGTTVTVSS VL: DIVMTQSPLSLPVTPGEPASISCQASQELVHMNRNTYLHWYQQKPGQAPRLLIYKVSNRFPGVPDRFSGSGSGTDFTLKISRVEAEDVGVYYCAQGTSVPFTFGQGTKLEIK |
| 1.4 | H183/L072 VH P100eI (antibody, name in Kabat numbering, V domains shown) VH: QVQLVESGGGLVQPGRSLRLSCAASGFTFSNAWMHWVRQAPGKGLEWVAQIKDKGNAYAAYYAPSVKGRFTISRDDSKNSIYLQMNSLKTEDTAVYYCHYVHYASASTVLIAFGVDAWGQGTTVTVSS VL: DIVMTQSPLSLPVTPGEPASISCQASQELVHMNRNTYLHWYQQKPGQAPRLLIYKVSNRFPGVPDRFSGSGSGTDFTLKISRVEAEDVGVYYCAQGTSVPFTFGQGTKLEIK |
| 0.9 | H183/L072 VH N53Y (antibody, name in Kabat numbering, V domains shown) VH: QVQLVESGGGLVQPGRSLRLSCAASGFTFSNAWMHWVRQAPGKGLEWVAQIKDKGYAYAAYYAPSVKGRFTISRDDSKNSIYLQMNSLKTEDTAVYYCHYVHYASASTVLPAFGVDAWGQGTTVTVSS VL: DIVMTQSPLSLPVTPGEPASISCQASQELVHMNRNTYLHWYQQKPGQAPRLLIYKVSNRFPGVPDRFSGSGSGTDFTLKISRVEAEDVGVYYCAQGTSVPFTFGQGTKLEIK |
| 1.8 | H183/L072 VH P61I (antibody, name in Kabat numbering, V domains shown) VH: QVQLVESGGGLVQPGRSLRLSCAASGFTFSNAWMHWVRQAPGKGLEWVAQIKDKGNAYAAYYAISVKGRFTISRDDSKNSIYLQMNSLKTEDTAVYYCHYVHYASASTVLPAFGVDAWGQGTTVTVSS VL: DIVMTQSPLSLPVTPGEPASISCQASQELVHMNRNTYLHWYQQKPGQAPRLLIYKVSNRFPGVPDRFSGSGSGTDFTLKISRVEAEDVGVYYCAQGTSVPFTFGQGTKLEIK |
| 1.8 | H183/L072 VH P61M (antibody, name in Kabat numbering, V domains shown) VH: QVQLVESGGGLVQPGRSLRLSCAASGFTFSNAWMHWVRQAPGKGLEWVAQIKDKGNAYAAYYAMSVKGRFTISRDDSKNSIYLQMNSLKTEDTAVYYCHYVHYASASTVLPAFGVDAWGQGTTVTVSS VL: DIVMTQSPLSLPVTPGEPASISCQASQELVHMNRNTYLHWYQQKPGQAPRLLIYKVSNRFPGVPDRFSGSGSGTDFTLKISRVEAEDVGVYYCAQGTSVPFTFGQGTKLEIK |
| 0.3 | H183/L072 VH Q50F (antibody, name in Kabat numbering, V domains shown) VH: QVQLVESGGGLVQPGRSLRLSCAASGFTFSNAWMHWVRQAPGKGLEWVAFIKDKGNAYAAYYAPSVKGRFTISRDDSKNSIYLQMNSLKTEDTAVYYCHYVHYASASTVLPAFGVDAWGQGTTVTVSS VL: DIVMTQSPLSLPVTPGEPASISCQASQELVHMNRNTYLHWYQQKPGQAPRLLIYKVSNRFPGVPDRFSGSGSGTDFTLKISRVEAEDVGVYYCAQGTSVPFTFGQGTKLEIK |
| 0.3 | H183/L072 VH Q50H (antibody, name in Kabat numbering, V domains shown) VH: QVQLVESGGGLVQPGRSLRLSCAASGFTFSNAWMHWVRQAPGKGLEWVAHIKDKGNAYAAYYAPSVKGRFTISRDDSKNSIYLQMNSLKTEDTAVYYCHYVHYASASTVLPAFGVDAWGQGTTVTVSS VL: DIVMTQSPLSLPVTPGEPASISCQASQELVHMNRNTYLHWYQQKPGQAPRLLIYKVSNRFPGVPDRFSGSGSGTDFTLKISRVEAEDVGVYYCAQGTSVPFTFGQGTKLEIK |
| 0 | H183/L072 VH Q50D (antibody, name in Kabat numbering, V domains shown) VH: QVQLVESGGGLVQPGRSLRLSCAASGFTFSNAWMHWVRQAPGKGLEWVADIKDKGNAYAAYYAPSVKGRFTISRDDSKNSIYLQMNSLKTEDTAVYYCHYVHYASASTVLPAFGVDAWGQGTTVTVSS VL: DIVMTQSPLSLPVTPGEPASISCQASQELVHMNRNTYLHWYQQKPGQAPRLLIYKVSNRFPGVPDRFSGSGSGTDFTLKISRVEAEDVGVYYCAQGTSVPFTFGQGTKLEIK |
| 0 | H183/L072 VH Q50G (antibody, name in Kabat numbering, V domains shown) VH: QVQLVESGGGLVQPGRSLRLSCAASGFTFSNAWMHWVRQAPGKGLEWVAGIKDKGNAYAAYYAPSVKGRFTISRDDSKNSIYLQMNSLKTEDTAVYYCHYVHYASASTVLPAFGVDAWGQGTTVTVSS VL: DIVMTQSPLSLPVTPGEPASISCQASQELVHMNRNTYLHWYQQKPGQAPRLLIYKVSNRFPGVPDRFSGSGSGTDFTLKISRVEAEDVGVYYCAQGTSVPFTFGQGTKLEIK |
| 1.3 | H183/L072 VH P100eL (antibody, name in Kabat numbering, V domains shown) VH: QVQLVESGGGLVQPGRSLRLSCAASGFTFSNAWMHWVRQAPGKGLEWVAQIKDKGNAYAAYYAPSVKGRFTISRDDSKNSIYLQMNSLKTEDTAVYYCHYVHYASASTVLLAFGVDAWGQGTTVTVSS VL: DIVMTQSPLSLPVTPGEPASISCQASQELVHMNRNTYLHWYQQKPGQAPRLLIYKVSNRFPGVPDRFSGSGSGTDFTLKISRVEAEDVGVYYCAQGTSVPFTFGQGTKLEIK |
| 0.4 | H183/L072 VH Q50I (antibody, name in Kabat numbering, V domains shown) VH: QVQLVESGGGLVQPGRSLRLSCAASGFTFSNAWMHWVRQAPGKGLEWVAIIKDKGNAYAAYYAPSVKGRFTISRDDSKNSIYLQMNSLKTEDTAVYYCHYVHYASASTVLPAFGVDAWGQGTTVTVSS VL: DIVMTQSPLSLPVTPGEPASISCQASQELVHMNRNTYLHWYQQKPGQAPRLLIYKVSNRFPGVPDRFSGSGSGTDFTLKISRVEAEDVGVYYCAQGTSVPFTFGQGTKLEIK |
| 1.9 | H183/L072 VH P61A (antibody, name in Kabat numbering, V domains shown) VH: QVQLVESGGGLVQPGRSLRLSCAASGFTFSNAWMHWVRQAPGKGLEWVAQIKDKGNAYAAYYAASVKGRFTISRDDSKNSIYLQMNSLKTEDTAVYYCHYVHYASASTVLPAFGVDAWGQGTTVTVSS VL: DIVMTQSPLSLPVTPGEPASISCQASQELVHMNRNTYLHWYQQKPGQAPRLLIYKVSNRFPGVPDRFSGSGSGTDFTLKISRVEAEDVGVYYCAQGTSVPFTFGQGTKLEIK |
| 0 | H183/L072 VH Q50E (antibody, name in Kabat numbering, V domains shown) VH: QVQLVESGGGLVQPGRSLRLSCAASGFTFSNAWMHWVRQAPGKGLEWVAEIKDKGNAYAAYYAPSVKGRFTISRDDSKNSIYLQMNSLKTEDTAVYYCHYVHYASASTVLPAFGVDAWGQGTTVTVSS VL: DIVMTQSPLSLPVTPGEPASISCQASQELVHMNRNTYLHWYQQKPGQAPRLLIYKVSNRFPGVPDRFSGSGSGTDFTLKISRVEAEDVGVYYCAQGTSVPFTFGQGTKLEIK |
| 0.2 | H183/L072 VH Q50L (antibody, name in Kabat numbering, V domains shown) VH: QVQLVESGGGLVQPGRSLRLSCAASGFTFSNAWMHWVRQAPGKGLEWVALIKDKGNAYAAYYAPSVKGRFTISRDDSKNSIYLQMNSLKTEDTAVYYCHYVHYASASTVLPAFGVDAWGQGTTVTVSS VL: DIVMTQSPLSLPVTPGEPASISCQASQELVHMNRNTYLHWYQQKPGQAPRLLIYKVSNRFPGVPDRFSGSGSGTDFTLKISRVEAEDVGVYYCAQGTSVPFTFGQGTKLEIK |
| 1.8 | H183/L072 VH P61L (antibody, name in Kabat numbering, V domains shown) VH: QVQLVESGGGLVQPGRSLRLSCAASGFTFSNAWMHWVRQAPGKGLEWVAQIKDKGNAYAAYYALSVKGRFTISRDDSKNSIYLQMNSLKTEDTAVYYCHYVHYASASTVLPAFGVDAWGQGTTVTVSS VL: DIVMTQSPLSLPVTPGEPASISCQASQELVHMNRNTYLHWYQQKPGQAPRLLIYKVSNRFPGVPDRFSGSGSGTDFTLKISRVEAEDVGVYYCAQGTSVPFTFGQGTKLEIK |
| 0 | H183/L072 VH Q50K (antibody, name in Kabat numbering, V domains shown) VH: QVQLVESGGGLVQPGRSLRLSCAASGFTFSNAWMHWVRQAPGKGLEWVAKIKDKGNAYAAYYAPSVKGRFTISRDDSKNSIYLQMNSLKTEDTAVYYCHYVHYASASTVLPAFGVDAWGQGTTVTVSS VL: DIVMTQSPLSLPVTPGEPASISCQASQELVHMNRNTYLHWYQQKPGQAPRLLIYKVSNRFPGVPDRFSGSGSGTDFTLKISRVEAEDVGVYYCAQGTSVPFTFGQGTKLEIK |
| 0 | H183/L072 VH Q50A (antibody, name in Kabat numbering, V domains shown) VH: QVQLVESGGGLVQPGRSLRLSCAASGFTFSNAWMHWVRQAPGKGLEWVAAIKDKGNAYAAYYAPSVKGRFTISRDDSKNSIYLQMNSLKTEDTAVYYCHYVHYASASTVLPAFGVDAWGQGTTVTVSS VL: DIVMTQSPLSLPVTPGEPASISCQASQELVHMNRNTYLHWYQQKPGQAPRLLIYKVSNRFPGVPDRFSGSGSGTDFTLKISRVEAEDVGVYYCAQGTSVPFTFGQGTKLEIK |
| 1.8 | H183/L072 VH P100eM (antibody, name in Kabat numbering, V domains shown) VH: QVQLVESGGGLVQPGRSLRLSCAASGFTFSNAWMHWVRQAPGKGLEWVAQIKDKGNAYAAYYAPSVKGRFTISRDDSKNSIYLQMNSLKTEDTAVYYCHYVHYASASTVLMAFGVDAWGQGTTVTVSS VL: DIVMTQSPLSLPVTPGEPASISCQASQELVHMNRNTYLHWYQQKPGQAPRLLIYKVSNRFPGVPDRFSGSGSGTDFTLKISRVEAEDVGVYYCAQGTSVPFTFGQGTKLEIK |
| 1.2 | H183/L072 VH N53W (antibody, name in Kabat numbering, V domains shown) VH: QVQLVESGGGLVQPGRSLRLSCAASGFTFSNAWMHWVRQAPGKGLEWVAQIKDKGWAYAAYYAPSVKGRFTISRDDSKNSIYLQMNSLKTEDTAVYYCHYVHYASASTVLPAFGVDAWGQGTTVTVSS VL: DIVMTQSPLSLPVTPGEPASISCQASQELVHMNRNTYLHWYQQKPGQAPRLLIYKVSNRFPGVPDRFSGSGSGTDFTLKISRVEAEDVGVYYCAQGTSVPFTFGQGTKLEIK |
